{"source": "the supplement of paper PMC12042874", "note": "± gives the uncertainty stated by the source."}
{"test": "amyloid nucleation score (Sup35N fusion, yeast selection) (log enrichment); library NNK3; higher = more nucleation; inactive = no reads after selection", "outline": "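Peptides of 20 random codons fused to Sup35N were expressed in psi-negative yeast, induced 24 hours with 100 μM copper sulfate, then grown 7 days at 30°C on medium lacking adenine and uracil. Input and output plasmid inserts were Illumina-sequenced. Nucleation score is the DiMSum log enrichment of output over input reads, centred on the mode score of non-aggregating sequences, excluding sequences with under 100 input reads. Random libraries had three technical output replicates.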"}
{"substance": "RHNARRWCTVSC", "amyloid nucleation score": "inactive"}
{"substance": "RHVLQILLSKKRDATMLPNY", "amyloid nucleation score": "inactive"}
{"substance": "RHVNCLAQLSDCKLTIM", "amyloid nucleation score": "0.396 ± 0.38"}
{"substance": "RHYKLGGSGTCDVSYGSCYD", "amyloid nucleation score": "inactive"}
{"substance": "RIDRFCSFFNRSPSDCLLLS", "amyloid nucleation score": "inactive"}
{"substance": "RIEYVVPITPM", "amyloid nucleation score": "inactive"}
{"substance": "RIFLIICKMYYFRNNRLFRM", "amyloid nucleation score": "-0.508 ± 0.8"}
{"substance": "RIKCMEIFERPCYFLFCLHK", "amyloid nucleation score": "inactive"}
{"substance": "RILMCMLYAAGSMARYPIWG", "amyloid nucleation score": "inactive"}
{"substance": "RILTDGIIVLFL", "amyloid nucleation score": "inactive"}
{"substance": "RIRGMFGCPNNR", "amyloid nucleation score": "inactive"}
{"substance": "RISSIAEDSSRAGASEHPGQ", "amyloid nucleation score": "-0.57 ± 1.8"}
{"substance": "RITGSRFCHCDLVNCDATVC", "amyloid nucleation score": "inactive"}
{"substance": "RIVGIYKGLLAD", "amyloid nucleation score": "inactive"}
{"substance": "RKFTVSISRGNWSHAWTYSE", "amyloid nucleation score": "inactive"}
{"substance": "RKKTNCHINYFMDALFERLA", "amyloid nucleation score": "inactive"}
{"substance": "RKTRDSCTMGSNTTWRVIFC", "amyloid nucleation score": "0.158 ± 0.49"}
{"substance": "RKVSSLVITRMAWMLSGNWL", "amyloid nucleation score": "2.57 ± 0.051"}
{"substance": "RKWMHMDASVCVTIYWDAGL", "amyloid nucleation score": "0.38 ± 0.4"}
{"substance": "RLAKSMH", "amyloid nucleation score": "inactive"}
{"substance": "RLCSKRVKSTDGGSEHRMSW", "amyloid nucleation score": "inactive"}
{"substance": "RLETMGLRNNVVCNSSEALQ", "amyloid nucleation score": "inactive"}
{"substance": "RLFDLVYSGLVFRKHSHTAM", "amyloid nucleation score": "inactive"}
{"substance": "RLFSRDLTSFCFLFFNFRWK", "amyloid nucleation score": "inactive"}
{"substance": "RLFYCVSAVRIHVCGNSKLF", "amyloid nucleation score": "inactive"}
{"substance": "RLGFRCSVLSDMLYVGVLGS", "amyloid nucleation score": "inactive"}
{"substance": "RLLPFIGIYNFSKKWLSKAL", "amyloid nucleation score": "-0.313 ± 0.75"}
{"substance": "RLMFWRELGLFSKFKLSIQG", "amyloid nucleation score": "inactive"}
{"substance": "RLNCDCPAMHVCN", "amyloid nucleation score": "2.35 ± 0.074"}
{"substance": "RLNHKVFRSLCKKFLRWHGS", "amyloid nucleation score": "inactive"}
{"substance": "RLPRRSEDIKALRMDIRLYR", "amyloid nucleation score": "inactive"}
{"substance": "RLQMRSATLYCEGGSGAILY", "amyloid nucleation score": "inactive"}
{"substance": "RLRYIGSILLLRRKVVFLMH", "amyloid nucleation score": "inactive"}
{"substance": "RLSLDRRNVRPDDMVHASGG", "amyloid nucleation score": "inactive"}
{"substance": "RLSLVFRHIAFTS", "amyloid nucleation score": "inactive"}
{"substance": "RLSYRVNCLRCPNFWNRHMS", "amyloid nucleation score": "1.93 ± 0.11"}
{"substance": "RLVDLAWRCYKIDKCLTCSS", "amyloid nucleation score": "-0.589 ± 0.93"}
{"substance": "RLVLYMPVLLSMVVTNWALL", "amyloid nucleation score": "0.872 ± 0.15"}
{"substance": "RLVVLMCCIGYFGPADMNFA", "amyloid nucleation score": "2.66 ± 0.08"}
{"substance": "RLYNKSVTLAWRRFSGTKEL", "amyloid nucleation score": "inactive"}
{"substance": "RMAYNFTKSR", "amyloid nucleation score": "inactive"}
{"substance": "RMGVPTSYPDPDLSNDVER", "amyloid nucleation score": "inactive"}
{"substance": "RMHMKLVGKG", "amyloid nucleation score": "inactive"}
{"substance": "RMLPRLQDAR", "amyloid nucleation score": "inactive"}
{"substance": "RMNCQFTGMSTFRPPLLGAR", "amyloid nucleation score": "inactive"}
{"substance": "RMRSGSA", "amyloid nucleation score": "inactive"}
{"substance": "RNCVSSGCCRRFSD", "amyloid nucleation score": "inactive"}
{"substance": "RNCYCWASVDI", "amyloid nucleation score": "inactive"}
{"substance": "RNGIVGD", "amyloid nucleation score": "inactive"}
{"substance": "RNKSVVPHVLRELCFMVWLV", "amyloid nucleation score": "inactive"}
{"substance": "RNLYSIRANMWLNRQLRKYS", "amyloid nucleation score": "inactive"}
{"substance": "RNNCCAKVIYKWLSTFGQTD", "amyloid nucleation score": "inactive"}
{"substance": "RNNDVSEVKMLMKRELGFYN", "amyloid nucleation score": "inactive"}
{"substance": "RNSKLSCNVDTKSCFVECMN", "amyloid nucleation score": "inactive"}
{"substance": "RNSRSLSLPCC", "amyloid nucleation score": "inactive"}
{"substance": "RNTLARKFVIRFTIFNAWSN", "amyloid nucleation score": "1.28 ± 0.11"}
{"substance": "RNTMSFNDSFTNALLLKSVG", "amyloid nucleation score": "inactive"}
{"substance": "RNVIANEGLCQKR", "amyloid nucleation score": "inactive"}
{"substance": "RNVVAESRKSWGHCVRVTYT", "amyloid nucleation score": "inactive"}
{"substance": "RPAGLWVTMWIYPVLRSTYV", "amyloid nucleation score": "inactive"}
{"substance": "RPFLCYLTAPASMNNTLNQV", "amyloid nucleation score": "inactive"}
{"substance": "RPMKLRCASGWNVDTQFFDT", "amyloid nucleation score": "inactive"}
{"substance": "RPNFDYTIWSMTNWILFTCD", "amyloid nucleation score": "inactive"}
{"substance": "RPPHYQCMCSLVLSSRRNIQ", "amyloid nucleation score": "inactive"}
{"substance": "RPSFLVGRFMTVLKSPRHDV", "amyloid nucleation score": "-0.692 ± 1.4"}
{"substance": "RPSSLIYFSSPNTRHGSPTL", "amyloid nucleation score": "inactive"}
{"substance": "RPVAFPIR", "amyloid nucleation score": "inactive"}
{"substance": "RPVTPC", "amyloid nucleation score": "inactive"}
{"substance": "RQHLFRSWEVQMSLSLDF", "amyloid nucleation score": "-0.379 ± 0.63"}
{"substance": "RQISLYFSFNRFSMYFTLNL", "amyloid nucleation score": "inactive"}
{"substance": "RQTTYHGGKWLCSSVSGMYN", "amyloid nucleation score": "inactive"}
{"substance": "RRDCCGE", "amyloid nucleation score": "0.17 ± 0.75"}
{"substance": "RREPQCYYWGAYCSVAASPA", "amyloid nucleation score": "inactive"}
{"substance": "RRFGAFCIVPFERIVLDGWE", "amyloid nucleation score": "inactive"}
{"substance": "RRHAR", "amyloid nucleation score": "inactive"}
{"substance": "RRQLLVGIP", "amyloid nucleation score": "inactive"}
{"substance": "RRTVYRHF", "amyloid nucleation score": "inactive"}
{"substance": "RRWSLRWNHLM", "amyloid nucleation score": "inactive"}
{"substance": "RSFLIRFILDLVYIRRTRNV", "amyloid nucleation score": "-0.273 ± 1.1"}
{"substance": "RSICV", "amyloid nucleation score": "inactive"}
